Assay results reported in PMC7693276.

molecular target: central subunit ND3 of Y. lipolytica complex I (Y. lipolytica) (UniProt Q9B6C7)
Sequence of UniProt Q9B6C7 (Q9B6C7 whole entry, one chain of several): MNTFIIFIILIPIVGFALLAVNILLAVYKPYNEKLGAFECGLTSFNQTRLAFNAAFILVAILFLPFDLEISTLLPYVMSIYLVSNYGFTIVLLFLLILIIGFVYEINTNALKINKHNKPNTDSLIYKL

Substance | complex I activity (Q reductase activity), residual rate of the mutant [%]
accessory subunit LYRM6 (NDUFA6) mutant L42A of Y. lipolytica complex I (natural protein) | < 25
accessory subunit LYRM6 (NDUFA6) mutant Y43A of Y. lipolytica complex I (natural protein) | < 25
accessory subunit LYRM6 (NDUFA6) mutant F89A of Y. lipolytica complex I (natural protein) | < 25
